Source: US20180087042A1 (OPKO BIOLOGICS, published 2018)

How the values were obtained:
Experiment in all cases: cell-based or functional assay
[1] = target: NovoSeven® (commercial recombinant human FVIIa) (human) (UniProt P08709)
[2] = target: MOD-5014 (FVIIa-CTP3: activated Factor VII with three CTP peptides attached at the C-terminus) (human) (UniProt P08709)
[3] = target: Factor X (UniProt P00742 41-488, limits assumed)
Factor X, sequence (P00742 41-488 limits assumed): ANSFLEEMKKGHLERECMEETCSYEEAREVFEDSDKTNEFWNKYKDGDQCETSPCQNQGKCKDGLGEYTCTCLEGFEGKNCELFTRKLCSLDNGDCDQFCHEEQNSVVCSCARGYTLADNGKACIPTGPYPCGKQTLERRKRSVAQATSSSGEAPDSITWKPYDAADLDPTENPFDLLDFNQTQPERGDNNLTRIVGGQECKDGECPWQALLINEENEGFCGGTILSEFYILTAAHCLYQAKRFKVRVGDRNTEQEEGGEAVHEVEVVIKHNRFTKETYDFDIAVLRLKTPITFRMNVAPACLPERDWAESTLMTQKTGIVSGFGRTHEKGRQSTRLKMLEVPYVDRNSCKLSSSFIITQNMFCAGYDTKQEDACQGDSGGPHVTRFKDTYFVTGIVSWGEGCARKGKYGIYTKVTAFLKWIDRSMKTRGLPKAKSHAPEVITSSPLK

NovoSeven® (commercial recombinant human FVIIa) (human), sequence (P08709 61-466 limits assumed): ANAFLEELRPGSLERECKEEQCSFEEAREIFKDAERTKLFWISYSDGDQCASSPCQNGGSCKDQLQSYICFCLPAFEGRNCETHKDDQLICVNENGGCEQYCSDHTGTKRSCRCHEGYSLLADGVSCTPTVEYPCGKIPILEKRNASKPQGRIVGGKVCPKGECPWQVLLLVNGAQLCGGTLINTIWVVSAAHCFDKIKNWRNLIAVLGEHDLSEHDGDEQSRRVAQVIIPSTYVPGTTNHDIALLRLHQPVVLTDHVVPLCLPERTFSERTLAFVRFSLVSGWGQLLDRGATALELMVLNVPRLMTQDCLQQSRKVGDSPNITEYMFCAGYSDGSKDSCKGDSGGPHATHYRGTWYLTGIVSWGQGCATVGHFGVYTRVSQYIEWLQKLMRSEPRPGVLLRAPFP
NovoSeven® (commercial recombinant human FVIIa), sequence (P08709 61-466 limits assumed): as above
MOD-5014 (FVIIa-CTP3: activated Factor VII with three CTP peptides attached at the C-terminus) (human), sequence (P08709 61-212, chain 1 of 2): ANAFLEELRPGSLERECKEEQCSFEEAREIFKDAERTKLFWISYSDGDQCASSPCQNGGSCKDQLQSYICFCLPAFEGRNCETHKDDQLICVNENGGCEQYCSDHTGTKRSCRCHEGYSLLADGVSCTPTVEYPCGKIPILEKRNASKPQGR
MOD-5014 (FVIIa-CTP3: activated Factor VII with three CTP peptides attached at the C-terminus) (human), sequence (P08709 other isoform, or with tags, fused parts or gaps, chain 2 of 2): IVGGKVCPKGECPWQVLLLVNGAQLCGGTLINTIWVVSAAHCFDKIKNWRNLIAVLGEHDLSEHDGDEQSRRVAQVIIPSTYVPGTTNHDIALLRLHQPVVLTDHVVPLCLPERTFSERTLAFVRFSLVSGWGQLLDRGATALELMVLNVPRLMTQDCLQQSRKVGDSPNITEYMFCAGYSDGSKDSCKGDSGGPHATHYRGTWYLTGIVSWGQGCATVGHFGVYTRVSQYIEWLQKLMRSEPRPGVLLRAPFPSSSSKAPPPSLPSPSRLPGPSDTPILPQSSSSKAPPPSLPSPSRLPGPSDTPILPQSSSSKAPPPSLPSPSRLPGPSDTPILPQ

Substance: Anti thrombin III (ATIII) (from UniProt P01008 33-464)
- % Inhibition of clotting activity, AT 1.050 ng/mL [1]: 21%
- % Inhibition of clotting activity, AT 105 ng/mL [1]: 20%
- % Inhibition of clotting activity, AT 10,500 ng/mL [1]: 30%
- % Inhibition of clotting activity, AT 525000 ng/mL [1]: 100%
- Activity (mU/mL), Staclot clotting, AT 1.050 ng/mL [1]: 69.5 mU/mL
- Activity (mU/mL), Staclot clotting, AT 10.5 ng/mL [1]: 68.4 mU/mL
- Activity (mU/mL), Staclot clotting, AT 105 ng/mL [1]: 70.2 mU/mL
- Activity (mU/mL), Staclot clotting, AT 1,050 ng/mL [1]: 66.8 mU/mL
- Activity (mU/mL), Staclot clotting, AT 10,500 ng/mL [1]: 61.5 mU/mL
- Activity (mU/mL), Staclot clotting, AT 105000 ng/mL [1]: 30.6 mU/mL
- Activity (mU/mL), Staclot clotting, AT 525000 ng/mL [1]: 0 mU/mL
- O.D, FX activation by NovoSeven (0.7 ng/ml) at AT 0.16 µg/ml [1]: 1.23 O.D
- O.D, FX activation by NovoSeven (0.7 ng/ml) at AT 4 µg/ml [1]: 1.17 O.D
- O.D, FX activation by NovoSeven (0.7 ng/ml) at AT 20 µg/ml [1]: 1.15 O.D
- O.D, FX activation by NovoSeven (0.7 ng/ml) at AT 100 µg/ml [1]: 1.14 O.D
- O.D, FX activation by NovoSeven (0.7 ng/ml) at AT 500 µg/ml [1]: 0.933 O.D
- O.D, FX activation by NovoSeven (0.7 ng/ml) at AT 1680 µg/ml [1]: 0.784 O.D
- O.D., FX activation by NovoSeven (0.7 ng/ml) with AT III 20 µg/ml and heparin 0.002 U/µl [1]: 1.24 O.D.
- O.D., FX activation by NovoSeven (0.7 ng/ml) with AT III 20 µg/ml and heparin 0.01 U/µl [1]: 1.2 O.D.
- O.D., FX activation by NovoSeven (0.7 ng/ml) with AT III 20 µg/ml and heparin 0.25 U/µl [1]: 1.04 O.D.
- O.D., FX activation by NovoSeven (0.7 ng/ml) with AT III 20 µg/ml and heparin 1.25 U/µl [1]: 0.98 O.D.
- O.D., FX activation by NovoSeven (0.7 ng/ml) with AT III 20 µg/ml and heparin 6.25 U/µl [1]: 1 O.D.
- % Inhibition of clotting activity, AT 1.050 ng/mL [2]: 25%
- % Inhibition of clotting activity, AT 10.5 ng/mL [2]: 28%
- % Inhibition of clotting activity, AT 105 ng/mL [2]: 25%
- % Inhibition of clotting activity, AT 10,500 ng/mL [2]: 25%
- % Inhibition of clotting activity, AT 105000 ng/mL [2]: 62%
- % Inhibition of clotting activity, AT 525000 ng/mL [2]: 100%
- Activity (mU/mL), Staclot clotting, AT 1.050 ng/mL [2]: 52.9 mU/mL
- Activity (mU/mL), Staclot clotting, AT 10.5 ng/mL [2]: 50.7 mU/mL
- Activity (mU/mL), Staclot clotting, AT 105 ng/mL [2]: 53.3 mU/mL
- Activity (mU/mL), Staclot clotting, AT 1,050 ng/mL [2]: 53.4 mU/mL
- Activity (mU/mL), Staclot clotting, AT 10,500 ng/mL [2]: 53 mU/mL
- Activity (mU/mL), Staclot clotting, AT 105000 ng/mL [2]: 27 mU/mL
- Activity (mU/mL), Staclot clotting, AT 525000 ng/mL [2]: 0 mU/mL
- O.D, FX activation by MOD-5014 (0.7 ng/ml) at AT 0.16 µg/ml [2]: 1.18 O.D
- O.D, FX activation by MOD-5014 (0.7 ng/ml) at AT 0.8 µg/ml [2]: 1.07 O.D
- O.D, FX activation by MOD-5014 (0.7 ng/ml) at AT 4 µg/ml [2]: 1.14 O.D
- O.D, FX activation by MOD-5014 (0.7 ng/ml) at AT 20 µg/ml [2]: 1.11 O.D
- O.D, FX activation by MOD-5014 (0.7 ng/ml) at AT 100 µg/ml [2]: 0.974 O.D
- O.D, FX activation by MOD-5014 (0.7 ng/ml) at AT 500 µg/ml [2]: 0.975 O.D
- O.D, FX activation by MOD-5014 (0.7 ng/ml) at AT 1680 µg/ml [2]: 0.656 O.D
- O.D., FX activation by MOD-5014 (0.7 ng/ml) with AT III 20 µg/ml and heparin 0.002 U/µl [2]: 1.29 O.D.
- O.D., FX activation by MOD-5014 (0.7 ng/ml) with AT III 20 µg/ml and heparin 0.01 U/µl [2]: 1.14 O.D.
- O.D., FX activation by MOD-5014 (0.7 ng/ml) with AT III 20 µg/ml and heparin 0.25 U/µl [2]: 0.017 O.D.
- O.D., FX activation by MOD-5014 (0.7 ng/ml) with AT III 20 µg/ml and heparin 1.25 U/µl [2]: 0.896 O.D.
- O.D., FX activation by MOD-5014 (0.7 ng/ml) with AT III 20 µg/ml and heparin 6.25 U/µl [2]: 1.02 O.D.

Substance: NovoSeven® (commercial recombinant human FVIIa) (from UniProt P08709 61-466) (enzyme)
- EC50 of Factor X activation (BIOPHEN FVII chromogenic assay) [3]: 0.38 ng/mL
- O.D, FX activation at rFVIIa 0.00128 ng/ml [3]: 0.123 O.D
- O.D, FX activation at rFVIIa 0.00640 ng/ml [3]: 0.133 O.D
- O.D, FX activation at rFVIIa 0.0320 ng/ml [3]: 0.138 O.D
- O.D, FX activation at rFVIIa 0.160 ng/ml [3]: 0.178 O.D
- O.D, FX activation at rFVIIa 0.80 ng/ml [3]: 0.303 O.D
- O.D, FX activation at rFVIIa 4.00 ng/ml [3]: 0.352 O.D
- O.D, FX activation at rFVIIa 20.00 ng/ml [3]: 0.365 O.D
- O.D, FX activation at rFVIIa 100.00 ng/ml [3]: 0.363 O.D
